Protein stability index data for 29 sequences are collected here from the supplement of paper PMC10567573.

This data set can be described thus: protein stability index of a GFP-peptide fusion (GPS, HEK-293T) (PSI 1-6); higher = more stable. The following applies: c terminus: a fixed tail appended.

± gives the standard deviation.
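Also: 24-mer peptide tiles fused after GFP, lentivirally expressed, FACS-sorted into six equal bins by GFP/DsRed ratio, decoded by Illumina sequencing, PSI is the read-weighted mean bin number.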

With TLSRPPPAQVPREVLKVQTHLENP [TFE3], the protein stability index runs as follows: (treatment: DMSO) 4.3 ± 0.11; (treatment: MLN4924 1 uM, 8 h) 4.41 ± 0.19.
As to TMELRNYFSLYCLHQETQLIHVYL [SNX8], the protein stability index was 3.41 ± 0.67 (treatment: DMSO) and 2.94 ± 0.72 (treatment: MLN4924 1 uM, 8 h).
For the sequence TMKESLTTREIRRQEAIYEMSRGE [NET1], the protein stability index reads like this: (treatment: DMSO) 4.46 ± 0.26; (treatment: MLN4924 1 uM, 8 h) 4.68 ± 0.33.
The matching figures for TNPDLIIVCAQSSQSLWNRLSVLL [SMG5]: 2.59 ± 0.54 and 2.49 ± 0.64.
Consider TPAPPLWIGLFLVATGSQQSLAQP, for which the protein stability index by setting is: (treatment: DMSO) 2.57 ± 0.23; (treatment: MLN4924 1 uM, 8 h) 2.94 ± 0.74.
With TPPTPAPTSGIVGALMEVMQKRSK [WASL], the protein stability index runs as follows: (treatment: DMSO) 4.55 ± 0.12; (treatment: MLN4924 1 uM, 8 h) 4.65 ± 0.25.
For TPSNFQHIGHVGWDPNTGFDLNNL [WASL], the protein stability index (treatment: DMSO) worked out at 3.24 ± 0.3 and the protein stability index (treatment: MLN4924 1 uM, 8 h) was 3.47 ± 0.4.
TPTLKVFMHENLYFTNRKVNSVCW [DCAF4]: the protein stability index is, setting by setting: (treatment: DMSO) 2.26 ± 0.4; (treatment: MLN4924 1 uM, 8 h) 1.95 ± 0.22.
The matching figures for TPVPTITANVTSVPVPPAAAPPPP [BRD3]: 4.92 ± 0.17 and 5.04 ± 0.17.
Take TQHKFICEQCGKCKCGECTAPRTL [SPRY1]: the protein stability index (treatment: DMSO) was found to be 4 ± 0.22 and the protein stability index (treatment: MLN4924 1 uM, 8 h) was found to be 3.87 ± 0.18.
Turning to TRGDADMYDLPKKEDALLYQSKGY [EMD], the protein stability index by setting is: (treatment: DMSO) 4.19 ± 0.14; (treatment: MLN4924 1 uM, 8 h) 4.38 ± 0.15.
With TRKQAAKKVAPLMAKAIRDYKGRF [ELOA2], the protein stability index is, setting by setting: (treatment: DMSO) 3.25 ± 0.37; (treatment: MLN4924 1 uM, 8 h) 3.39 ± 0.36.
TRRTLKGHGNKVLCMDWCKDKRRI [GNB5]: the protein stability index came to 3.02 ± 0.37 (treatment: DMSO) and 3.25 ± 0.23 (treatment: MLN4924 1 uM, 8 h).
The matching figures for TRTTSFKGTSPSSKYVKLNVGGAL [KCTD10]: 3.01 ± 0.41 and 2.87 ± 0.28.
As to TRYSVAGLSPYSDYEFRVVAVNNI [PTPRD], the protein stability index was 2.51 ± 0.35 (treatment: DMSO) and 2.61 ± 0.37 (treatment: MLN4924 1 uM, 8 h).
On the same counts, the results for TSASLLNAGLSHTEYQIVTDPGDV [SLC2A12] are 4.42 ± 0.16 and 4.76 ± 0.15.
Sequence TSCLKKREEMKLKECVSILPRKES [TNFSF13B] gave a protein stability index (treatment: DMSO) of 4.42 ± 0.15 and a protein stability index (treatment: MLN4924 1 uM, 8 h) of 4.5 ± 0.15.
TSHRRVTDVRGLEEFLSAMQSARG [PLEKHN1]: the protein stability index reads like this: (treatment: DMSO) 3.33 ± 0.31; (treatment: MLN4924 1 uM, 8 h) 3.42 ± 0.26.
On the same counts, the results for TSPALLQGTAEEDHVDLSLSCTLV [CDKN1A] are 3.85 ± 0.13 and 3.85 ± 0.18.
In the case of TSYKPYLNRDEEIIKQLQKGVQQK [DENND6A], the protein stability index (treatment: DMSO) was found to be 3.34 ± 0.25 and the protein stability index (treatment: MLN4924 1 uM, 8 h) was determined as 3.27 ± 0.34.
On the same counts, the results for TTQSAEVGAAETTLTELRRTVQSL [KRT18] are 4.63 ± 0.22 and 4.55 ± 0.4.
The matching figures for TVKMLRTQRPAMVQTEDQYQFSYR [PTPRD]: 2.84 ± 0.37 and 2.97 ± 0.33.
In the case of TVLKQIAPEYFEKNEPYLEAACND [DENND6A], the protein stability index is, setting by setting: (treatment: DMSO) 3.09 ± 0.05; (treatment: MLN4924 1 uM, 8 h) 3.26 ± 0.43.
As for TVNIHRLHVKRSMGWKKACDELEL [ZMYND11], the protein stability index runs as follows: (treatment: DMSO) 2.61 ± 0.32; (treatment: MLN4924 1 uM, 8 h) 2.77 ± 0.36.
The matching figures for TVTSLKTKVGGTNPNGGSFEEVLS [TPD52L1]: 3.811 ± 0.036 and 3.82 ± 0.18.
Turning to VALGHAYHPEEFVCSQCGKVLEEG [PDLIM7], the protein stability index is 3.93 ± 0.34 (treatment: DMSO) and 4.03 ± 0.11 (treatment: MLN4924 1 uM, 8 h).
In the case of VAVLEQEIKDKDQLVLRTKEAFDT [SASS6], the protein stability index is, setting by setting: (treatment: DMSO) 4.57 ± 0.21; (treatment: MLN4924 1 uM, 8 h) 4.67 ± 0.41.
The matching figures for VCNKKFKMKHHLTEHMKTHTGLKP [ZBTB22]: 3.18 ± 0.14 and 3.21 ± 0.23.
On to VCQKLLLDAMNYHLMPFRQHCRQS [KLHL14], for which the protein stability index was found to be 3 ± 0.47 (treatment: DMSO) and 2.99 ± 0.62 (treatment: MLN4924 1 uM, 8 h).
